Data from paper PMC5738438, “Dynamic intramolecular regulation of the histone chaperone nucleoplasmin controls histone binding and release” (Nature Communications, 2017).

B1: Npm core+A2 truncation (1–145) (domain or fragment)
chain: ASTASNTSKVEKPVSLIWGCELNEQNKTFAFKIEDEEEKCEHQLALRTVCLGDKAKDEFHIVEIVTQEEGKEKPVPIASLKPSILPMATMVGIELTPPVTFRLKAGSGPVYISGQHVAMEEDYSWAEEEDEGEEEEEEEEDPESP
B2: A2 peptide (residues 119–145) (peptide)
chain: MEEDYSWAEEEDEGEEEEEEEEDPESP

How the values were obtained:
[1] = molecular target: the molecule itself; experiment: SEC-SAXS; complex of core+A2 and H2A/H2B purified by SEC, 4.83 mg/mL on Superdex 200 PC3.2/300, 5 mM DTT; Porod volume
H2A/H2B dimer = H2A/H2B dimer (Xenopus, UniProt P06897 2-123; P02281 1-126); experiment: other fluorescence titration; equilibrium tryptophan (W125) fluorescence, 340/360 ratio; tail or peptide 0.5 µM, histones titrated; 20 mM Tris pH 7.6, 150 mM NaCl, 1 mM EDTA, 1 mM DTT, 0.01% NP-40; single-site model; conditions: both partners purified

| Binder | stoichiometry N [1] | Kd (H2A/H2B dimer) |
| --- | --- | --- |
| B1 | 5 |  |
| B2 |  | < 50 nM |
